The results in this text go back to patent publication US20200283478A1 (Genentech, published 2020).

Test [1] has as its target T1, PCSK9 (proprotein convertase subtilisin/kexin type 9), His-tagged, full-length (human, UniProt Q8NBP7 31-692).
T1 construct: Captured by the His tag (SPR Methods 1 and 2), amine-coupled (Method 3), or His-tagged in TR-FRET; also called His-PCSK9
Nature of the test: SPR, Method 3 (SensiQ Pioneer FE, target amine-coupled, gradient injection).

Test [2] has as its target T2, PCSK9Δhelix (human, UniProt Q8NBP7 31-152; Q8NBP7 168-692).
T2 construct: Made by TEV cleavage of human PCSK9 M1-Q692 with an engineered TEV site; The new N-terminus of the catalytic domain is S-A168; also called His-PCSK9Δhelix; PCSK9 lacking the P' helix
The test is described as above.

Test [3] deals with T2, PCSK9Δhelix. Nature of the test: TR-FRET competition; competitor Ab20 binding to His-PCSK9Δhelix. A general note: Time-resolved FRET reads energy transfer from a long-lived donor to a nearby acceptor.
The target in test [4] is T1, PCSK9 (proprotein convertase …). As to the kind of experiment: TR-FRET competition; competitor EGF(A)-Fc binding to His-PCSK9.
The target of test [5] is T2, PCSK9Δhelix. As to the kind of experiment: TR-FRET competition; competitor Ab20 binding to His-PCSK9Δhelix. The source holds these as a separate data set.
Test [6] deals with T1, PCSK9 (proprotein convertase …). Nature of the test: TR-FRET competition; competitor EGF(A)-Fc binding to His-PCSK9. This is another data set of the same source.
Test [7] concerns the target T3, proprotein convertase subtilisin/kexin type 9 (PCSK9) (human, UniProt Q8NBP7 31-692).
T3 construct: His-tagged full-length PCSK9 in TR-FRET and SPR, biotinylated in phage ELISA; secreted protein is autoprocessed (prodomain plus catalytic/CRD chain starting at S153); also called rec.PCSK9; His-PCSK9
Nature of the test: phage spot ELISA. On the technique in general: ELISA stands for enzyme-linked immunosorbent assay.

The target in test [8] is T4, PCSK9Δhelix (human, Chemically biotinylated in the phage ELISAs; the site is not given.).
T4 construct: construct M1-Q692 with engineered TEV site, cleaved by TEV; also called His-PCSK9Δhelix; open groove PCSK9Δhelix
As to the kind of experiment: phage spot ELISA.

Read-outs that look alike come from different tables or passages of the source. Bridge positions count the residues as written; N and C are the ends. Square brackets hold non-standard residues; d marks the D form. Ends that are not written are not given here. * marks the point of attachment. 5FAM = O=C1OC2(c3ccc(O)cc3Oc3cc(O)ccc32)c2ccc(C(=O)*)cc21; Ach = 2-aminocyclohexane-1-carboxylic acid; hArg = N=C(N)NCCCC[C@H](N)C(=O)O; Dap = NC[C@H](N)C(=O)O; Pentanoyl = CCCCC(=O)* Where only a bound is given, the exact number is not on record here.

T3 sequence (Q8NBP7 other isoform, or with tags, fused parts or gaps limits assumed): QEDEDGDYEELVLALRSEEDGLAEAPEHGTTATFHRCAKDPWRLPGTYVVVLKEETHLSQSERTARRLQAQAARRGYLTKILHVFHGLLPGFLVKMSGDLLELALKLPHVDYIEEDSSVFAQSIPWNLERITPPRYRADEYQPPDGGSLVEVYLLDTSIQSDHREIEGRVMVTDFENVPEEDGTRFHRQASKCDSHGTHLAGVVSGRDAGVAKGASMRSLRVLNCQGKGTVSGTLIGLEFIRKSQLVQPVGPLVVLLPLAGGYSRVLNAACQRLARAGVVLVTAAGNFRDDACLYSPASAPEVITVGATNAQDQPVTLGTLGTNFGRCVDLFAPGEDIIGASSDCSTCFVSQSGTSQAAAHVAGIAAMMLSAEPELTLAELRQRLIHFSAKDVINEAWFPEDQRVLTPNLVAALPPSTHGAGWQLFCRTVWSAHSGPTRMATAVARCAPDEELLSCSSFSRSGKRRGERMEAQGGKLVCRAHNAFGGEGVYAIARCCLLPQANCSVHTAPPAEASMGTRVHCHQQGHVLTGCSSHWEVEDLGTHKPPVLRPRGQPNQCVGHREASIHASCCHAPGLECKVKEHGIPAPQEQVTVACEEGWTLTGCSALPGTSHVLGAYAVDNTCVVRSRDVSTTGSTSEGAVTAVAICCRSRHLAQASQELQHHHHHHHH
T4 sequence (prodomain, as listed by the source mutant limits assumed, chain 1 of 2): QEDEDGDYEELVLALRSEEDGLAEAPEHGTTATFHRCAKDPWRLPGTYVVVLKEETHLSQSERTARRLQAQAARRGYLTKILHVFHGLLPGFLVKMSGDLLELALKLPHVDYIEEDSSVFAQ
T4 sequence (chain, as listed by the source mutant limits assumed, chain 2 of 2): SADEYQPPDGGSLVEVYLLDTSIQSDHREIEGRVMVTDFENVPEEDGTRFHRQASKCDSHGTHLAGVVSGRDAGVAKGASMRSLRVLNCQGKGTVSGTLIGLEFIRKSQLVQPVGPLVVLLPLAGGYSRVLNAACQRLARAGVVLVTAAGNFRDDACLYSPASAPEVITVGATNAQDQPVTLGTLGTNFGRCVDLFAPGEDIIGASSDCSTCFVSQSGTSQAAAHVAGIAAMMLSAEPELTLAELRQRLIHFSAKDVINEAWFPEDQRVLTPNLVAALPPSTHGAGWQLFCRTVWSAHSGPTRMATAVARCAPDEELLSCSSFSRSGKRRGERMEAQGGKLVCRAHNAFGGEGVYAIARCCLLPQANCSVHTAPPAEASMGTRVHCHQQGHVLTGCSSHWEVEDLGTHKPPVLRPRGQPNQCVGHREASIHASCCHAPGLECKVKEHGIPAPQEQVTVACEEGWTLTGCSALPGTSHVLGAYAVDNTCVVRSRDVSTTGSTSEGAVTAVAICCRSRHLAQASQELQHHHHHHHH
T2 sequence (Q8NBP7 31-152, stated change not applied, chain 1 of 2): as the sequence (prodomain, as listed by the source mutant limits assumed, chain 1 of 2) above
T2 sequence (Q8NBP7 other isoform, or with tags, fused parts or gaps mutant, chain 2 of 2): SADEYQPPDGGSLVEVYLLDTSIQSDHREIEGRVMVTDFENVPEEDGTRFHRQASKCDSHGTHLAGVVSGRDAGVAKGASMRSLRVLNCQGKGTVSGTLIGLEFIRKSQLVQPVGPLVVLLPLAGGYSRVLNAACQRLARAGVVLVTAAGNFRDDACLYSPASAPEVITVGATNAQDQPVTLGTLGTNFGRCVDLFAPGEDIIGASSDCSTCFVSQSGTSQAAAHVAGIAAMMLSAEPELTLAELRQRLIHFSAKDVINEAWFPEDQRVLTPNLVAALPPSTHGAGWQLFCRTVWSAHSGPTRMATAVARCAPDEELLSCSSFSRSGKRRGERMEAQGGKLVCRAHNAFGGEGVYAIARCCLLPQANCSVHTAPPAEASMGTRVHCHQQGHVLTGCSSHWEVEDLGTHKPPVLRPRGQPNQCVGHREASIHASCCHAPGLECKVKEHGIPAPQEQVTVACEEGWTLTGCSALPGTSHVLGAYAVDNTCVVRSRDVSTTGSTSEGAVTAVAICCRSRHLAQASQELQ
T1 sequence (Q8NBP7 31-692 limits assumed): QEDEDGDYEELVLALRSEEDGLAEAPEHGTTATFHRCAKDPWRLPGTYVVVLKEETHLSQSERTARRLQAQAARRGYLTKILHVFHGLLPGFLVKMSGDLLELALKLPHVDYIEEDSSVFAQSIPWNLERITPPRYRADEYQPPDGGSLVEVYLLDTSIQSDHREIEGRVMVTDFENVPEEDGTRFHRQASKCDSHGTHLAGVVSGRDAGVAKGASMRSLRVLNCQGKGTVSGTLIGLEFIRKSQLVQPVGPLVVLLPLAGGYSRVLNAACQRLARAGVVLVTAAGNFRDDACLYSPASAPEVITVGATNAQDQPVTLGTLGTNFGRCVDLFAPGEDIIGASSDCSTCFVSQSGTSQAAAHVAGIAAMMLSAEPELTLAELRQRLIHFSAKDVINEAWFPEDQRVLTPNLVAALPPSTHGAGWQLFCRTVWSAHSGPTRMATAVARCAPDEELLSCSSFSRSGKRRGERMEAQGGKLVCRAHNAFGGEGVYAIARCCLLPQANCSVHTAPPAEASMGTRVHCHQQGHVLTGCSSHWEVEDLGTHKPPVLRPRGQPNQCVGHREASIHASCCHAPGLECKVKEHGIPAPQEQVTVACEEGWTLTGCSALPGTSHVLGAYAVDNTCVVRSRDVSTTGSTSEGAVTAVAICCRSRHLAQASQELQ

B1: Compound 97 (peptide)
peptide: Ac-GSGCWNL[Dap]RIGSQGC-NH2
modifications: disulfide 4-15
SMILES: CC[C@H](C)[C@@H]1NC(=O)[C@H](CCCNC(=N)N)NC(=O)[C@H](CN)NC(=O)[C@H](CC(C)C)NC(=O)[C@H](CC(N)=O)NC(=O)[C@H](Cc2c[nH]c3ccccc23)NC(=O)[C@@H](NC(=O)CNC(=O)[C@H](CO)NC(=O)CNC(C)=O)CSSC[C@@H](C(N)=O)NC(=O)CNC(=O)[C@H](CCC(N)=O)NC(=O)[C@H](CO)NC(=O)CNC1=O
notes: Two Cys, disulfide-cyclized; also called Ac-GSG-CWNL(Dpr)RIGSQGC-NH2
With B1, the Kd (usually the equilibrium constant for the complex coming apart) came to 522 µM in test [1] and 89.2 µM in the test with PCSK9Δhelix [2].

On to Ac-TVFTSWEEYLDWVGSGKLWNLGR-NH2 [Compound 4], for which the results for the IC50 (with PCSK9Δhelix [3]; in test [4]) were 1.52 µM and 0.49 µM, respectively.

Take Ac-PWNLVRIGL-NH2 [Compound 119]: the values for the IC50 (with PCSK9Δhelix [5]; in test [6]) were 49.5 µM and greater than 50 µM, respectively.

Consider SGRCLNHLISGNMNSC [SEQ ID NO 387], for which, in test [7], the ELISA was determined as 2.62 and the s/n ratio turned out to be 17.5. For the same molecule, in the test with PCSK9Δhelix [8], the ELISA was 2.88 and the s/n ratio was determined as 20.7.

For Ac-TVFTSWEEYLDWVGSGKLWNL-NH2 [Compound 6], the IC50 (as a rule, the midpoint of a concentration-inhibition curve) with PCSK9Δhelix [3] amounted to 10 µM; in test [4], 0.74 µM.

For Ac-WNLVRIGLLR-NH2 [Compound 53], the half-inhibitory concentration (IC50) with PCSK9Δhelix [5] was 33.1 µM; in test [6], greater than 50 µM. Moreover, the Kd in test [1] came to 223 µM; with PCSK9Δhelix [2], 33.8 µM.

B2: Compound 118 (peptide)
peptide: Pentanoyl-WNLV[hArg]IGLTR-NH2
SMILES: CCCCC(=O)N[C@@H](Cc1c[nH]c2ccccc12)C(=O)N[C@@H](CC(N)=O)C(=O)N[C@@H](CC(C)C)C(=O)N[C@H](C(=O)N[C@@H](CCCCNC(=N)N)C(=O)N[C@H](C(=O)NCC(=O)N[C@@H](CC(C)C)C(=O)N[C@H](C(=O)N[C@@H](CCCNC(=N)N)C(N)=O)[C@@H](C)O)[C@@H](C)CC)C(C)C
notes: also called n-BuC(O)-WNLV(homoR)IGLTR-NH2
As to B2, the figures for the IC50 (with PCSK9Δhelix [5]; in test [6]) were 1.4 µM and greater than 50 µM, respectively.

For the molecule SGGSMPWNLERIFALH [SEQ ID NO 390], the ELISA in test [7] stood at 2.74; with PCSK9Δhelix [8], 3.19. The s/n ratio is 15.8 in test [7] and 21.3 with PCSK9Δhelix [8].

Regarding Ac-TVFTSWEEYLDWVGSGKLWNLG-NH2 [Compound 5], the IC50 with PCSK9Δhelix [3] stood at 11.1 µM; in test [4], 0.72 µM.

As to Ac-TVFTSWEEYLDWVGSGKLWNLGRV-NH2 [Compound 1], the IC50 with PCSK9Δhelix [3] came out at 0.021 µM; in test [4], 0.388 µM.

With SGCFIPWNLQRIGLLC (not fully specified (C-terminus, bridges); cysteine pairing not given here) [SEQ ID NO 383], in test [7], the ELISA is 3 and the s/n ratio was 8.11. In the test with PCSK9Δhelix [8], the ELISA was 3.07 and the s/n ratio was found to be 8.48.

For SGDFIPWNLVRIGLLR [SEQ ID NO 385], in test [7], the ELISA was determined as 0.472 and the s/n ratio came to 3.42.

Regarding Ac-DLMPWNLVRI-NH2 [Compound 49], the IC50 with PCSK9Δhelix [5] was 49.5 µM; in test [6], greater than 50 µM.

On to Ac-FCLWNLKRIGAQCWF-NH2 (disulfide 2-13 (inferred), Two Cys, disulfide-cyclized) [Compound 96], for which the Kd in test [1] came out at 46.4 µM; with PCSK9Δhelix [2], 2.5 µM.

B3: Compound 111 (peptide)
peptide: Pentanoyl-WNLVRIGLLR-NH2
SMILES: CCCCC(=O)N[C@@H](Cc1c[nH]c2ccccc12)C(=O)N[C@@H](CC(N)=O)C(=O)N[C@@H](CC(C)C)C(=O)N[C@H](C(=O)N[C@@H](CCCNC(=N)N)C(=O)N[C@H](C(=O)NCC(=O)N[C@@H](CC(C)C)C(=O)N[C@@H](CC(C)C)C(=O)N[C@@H](CCCNC(=N)N)C(N)=O)[C@@H](C)CC)C(C)C
Regarding B3, the IC50 is 4.9 µM with PCSK9Δhelix [5] and greater than 50 µM in test [6].

Regarding 5FAM-SGSGCFIPWNLQRIGLLC-NH2 (disulfide 5-18 (inferred), Two Cys, disulfide-cyclized) [Compound 33], the results for the Kd (in test [1]; in the test with PCSK9Δhelix [2]) were 6.01 µM and 10 µM, respectively.

Take Ac-ALMPWNLVRIGLLR-NH2 [Compound 45]: the 50% inhibitory concentration (IC50) in the test with PCSK9Δhelix [5] was 2.02 µM; in test [6], greater than 50 µM. Further, the Kd in test [1] was 117 µM; in the test with PCSK9Δhelix [2], 8.2 µM.

Consider Ac-DLMPWNLVRIGLAR-NH2 [Compound 55], for which the results for the IC50 (in the test with PCSK9Δhelix [5]; in test [6]) were 9.7 µM and greater than 50 µM, respectively. The Kd in test [1] stood at 96.5 µM; with PCSK9Δhelix [2], 2.8 µM.

As to Ac-CRL[Ach]WNLQRIGLPC-NH2 (disulfide 1-14 (inferred), Two Cys, disulfide-cyclized) [Compound 82], the Kd amounted to 118 µM in test [1] and 6.4 µM in the test with PCSK9Δhelix [2].

Regarding SGDLMPWNLVRIGLLR [SEQ ID NO 389], in test [7], the ELISA was found to be 3.16 and the s/n ratio came out at 16.5. Moreover, in the test with PCSK9Δhelix [8], the ELISA was 3.23 and the s/n ratio worked out at 14.7.

Consider SGGACPWNLERIGLSC [SEQ ID NO 384], for which, in test [7], the ELISA worked out at 1.42 and the s/n ratio is 9.77. In the test with PCSK9Δhelix [8], the ELISA amounted to 1.94 and the s/n ratio stood at 12.3.

Turning to SGACVKPCIAGNIIR [SEQ ID NO 388], the results for the ELISA (in test [7]; with PCSK9Δhelix [8]) were 1.25 and 2.09, respectively. The results for the s/n ratio (in test [7]; in the test with PCSK9Δhelix [8]) were 9.44 and 18.2, respectively.

Consider Ac-LMPWNLVRIGLLR-NH2 [Compound 50], for which the IC50 in the test with PCSK9Δhelix [5] is 2.66 µM; in test [6], greater than 50 µM. Further, the equilibrium dissociation constant (Kd) in test [1] is 16.1 µM; with PCSK9Δhelix [2] it was 1.6 µM.

Consider Ac-MPWNLVRIGLLR-NH2 [Compound 51], for which the IC50 with PCSK9Δhelix [5] was 4.69 µM; in test [6], greater than 50 µM. The results for the Kd (in test [1]; with PCSK9Δhelix [2]) were 26.2 µM and 2.7 µM, respectively.

Turning to Ac-CFIPWNLQRIGLLC-NH2 (disulfide 1-14 (inferred), Two Cys, disulfide-cyclized) [Compound 31], the figures for the Kd (in test [1]; with PCSK9Δhelix [2]) were 5.83 µM and 3.01 µM, respectively.

For Ac-CRLPWNLQRIGLPC-NH2 (disulfide 1-14 (inferred), Two Cys, disulfide-cyclized) [Compound 32], the Kd in test [1] came to 1.3 µM; with PCSK9Δhelix [2], 0.21 µM.

Take Ac-CRLPWNLARIGLPC-NH2 (disulfide 1-14 (inferred), Two Cys, disulfide-cyclized) [Compound 73]: the Kd in test [1] was 11 µM; with PCSK9Δhelix [2], 0.167 µM.

As for Ac-WNLVRIGL-NH2 [Compound 120], the IC50 in the test with PCSK9Δhelix [5] was 49.5 µM; in test [6] it was greater than 50 µM.

Consider SGCSDLWNLARIYPMC [SEQ ID NO 391], for which, in test [7], the ELISA is 0.514 and the s/n ratio stood at 3.59. In the test with PCSK9Δhelix [8], the ELISA turned out to be 2.21 and the s/n ratio worked out at 15.1.

On to 5FAM-SGSGCRLPWNLQRIGLPC-NH2 (disulfide 5-18 (inferred), Two Cys, disulfide-cyclized) [Compound 34], for which the Kd in test [1] is 4.47 µM; with PCSK9Δhelix [2] it was 5.28 µM.

With Ac-PWNLVRIGLLR-NH2 [Compound 52], the figures for the IC50 (with PCSK9Δhelix [5]; in test [6]) were 10.2 µM and greater than 50 µM, respectively. The Kd in test [1] was found to be 17.9 µM; in the test with PCSK9Δhelix [2], 2.6 µM.
